# B1: CD40L on transfected, formaldehyde-fixed CHO cells (ligand)
# chain: MIETYNQTSPRSAATGLPISMKIFMYLLTVFLITQMIGSALFAVYLHRRLDKIEDERNLHEDFVFMKTIQRCNTGERSLSLLNCEEIKSQFEGFVKDIMLNKEETKKENSFEMQKGDQNPQIAAHVISEASSKTTSVLQWAEKGYYTMSNNLVTLENGKQLTVKRQGLYYIYAQVTFCSNREASSQAPFIASLCLKSPGRFERILLRAANTHSSAKPCGQQSIHLGGVFELQPGASVFVNVTDPSQVSHGTGFTSFGLLKL
# B2: soluble recombinant human CD40L (Alexis Corporation) (ligand)
# chain: GDQNPQIAAHVISEASSKTTSVLQWAEKGYYTMSNNLVTLENGKQLTVKRQGLYYIYAQVTFCSNREASSQAPFIASLCLKSPGRFERILLRAANTHSSAKPCGQQSIHLGGVFELQPGASVFVNVTDPSQVSHGTGFTSFGLLKL
# B3: CHIR-5.9 fully human anti-CD40 monoclonal antibody (antibody, V domains shown)
# VH: EVQLVQSGAEVKKPGESLKISCKGSGYSFTSYWIGWVRQMPGKGLEWMGIIYPGDSDTRYSPSFQGQVTISADKSISTAYLQWSSLKASDTAMYYCARGTAAGRDYYYYYGMDVWGQGTTVTVSS
# VL: AIVMTQPPLSSPVTLGQPASISCRSSQSLVHSDGNTYLNWLQQRPGQPPRLLIYKFFRRLSGVPDRFSGSGAGTDFTLKISRVEAEDVGVYYCMQVTQFPHTFGQGTRLEIKR
# notes: Human IgG1 kappa from XenoMouse hybridoma; also called mAb CHIR-5.9; 131.2F8.5.9
# B4: CHIR-12.12 fully human anti-CD40 monoclonal antibody (antibody, human IgG1, kappa, V domains shown)
# VH: QVQLVESGGGVVQPGRSLRLSCAASGFTFSSYGMHWVRQAPGKGLEWVAVISYEESNRYHADSVKGRFTISRDNSKITLYLQMNSLRTEDTAVYYCARDGGIAAPGPDYWGQGTLVTVSS
# VL: DIVMTQSPLSLTVTPGEPASISCRSSQSLLYSNGYNYLDWYLQKPGQSPQVLISLGSNRASGVPDRFSGSGSGTDFTLKISRVEAEDVGVYYCMQARQTPFTFGPGTKVDIRR
# notes: Human IgG1 kappa from XenoMouse hybridoma; also called 153.8E2.D10.D6.12.12
# Key:
# [1] = biological target: T1, human CD40 on the cell surface (normal B cells, B-CLL cells, EBV-transformed B cells, multiple myeloma cell … (human, UniProt P25942 20-277)); assay: cell-based or functional assay
# [2] = biological target: T1, human CD40 on the cell surface (normal …); assay: cell-based or functional assay; remark: listed apart in the source
# [3] = biological target: T1, human CD40 on the cell surface (normal …); assay: cell-based or functional assay; remark: listed apart in the source
# [4] = biological target: T2, human CD40, soluble / recombinant (ELISA and Biacore) (human, UniProt P25942 20-193); assay: Biacore (assay named in paragraph 181)
# T2 construct: also called soluble CD40; recombinant CD40
# T2 sequence (P25942 20-193): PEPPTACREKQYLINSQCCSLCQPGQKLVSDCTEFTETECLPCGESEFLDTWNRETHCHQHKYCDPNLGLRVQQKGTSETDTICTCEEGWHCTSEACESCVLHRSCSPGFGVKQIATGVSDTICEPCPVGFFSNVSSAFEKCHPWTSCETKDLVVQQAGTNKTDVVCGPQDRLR
# T1 sequence (P25942 20-277): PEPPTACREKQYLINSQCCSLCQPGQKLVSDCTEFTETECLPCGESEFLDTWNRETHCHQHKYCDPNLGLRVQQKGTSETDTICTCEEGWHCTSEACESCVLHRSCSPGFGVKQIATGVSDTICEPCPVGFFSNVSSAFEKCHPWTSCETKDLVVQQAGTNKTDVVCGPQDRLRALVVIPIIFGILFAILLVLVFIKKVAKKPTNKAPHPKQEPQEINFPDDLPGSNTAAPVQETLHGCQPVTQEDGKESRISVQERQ
binder,measurement,setting,value
B1,"MCP-1 secretion, normal B cells, Donor 1, fold induction over background",[1],5.5 fold
same,"MCP-1 secretion, normal B cells, Donor 3, fold induction over background",[1],1.7 fold
same,"MIP-1β secretion, normal B cells, Donor 1, fold induction over background",[1],2.2 fold
same,"MIP-1β secretion, normal B cells, Donor 2, fold induction over background",[1],2.6 fold
same,"MIP-1β secretion, normal B cells, Donor 3, fold induction over background",[1],17.8 fold
same,"hIL-6 secretion, normal B cells, Donor 1, fold induction over background",[1],5.7 fold
same,"hIL-6 secretion, normal B cells, Donor 2, fold induction over background",[1],3.8 fold
same,"hIL-6 secretion, normal B cells, Donor 3, fold induction over background",[1],20.5 fold
same,"hIL-8 secretion, normal B cells, Donor 1, fold induction over background",[1],7.7 fold
same,"hIL-8 secretion, normal B cells, Donor 2, fold induction over background",[1],14.7 fold
same,"hIL-8 secretion, normal B cells, Donor 3, fold induction over background",[1],49.3 fold
same,"hIL-10 secretion, normal B cells, Donor 1, fold induction over background",[1],3.6 fold
same,"hIL-10 secretion, normal B cells, Donor 3, fold induction over background",[1],3.6 fold
same,"hTNF-α secretion, normal B cells, Donor 1, fold induction over background",[1],3.7 fold
same,"hTNF-α secretion, normal B cells, Donor 2, fold induction over background",[1],4.8 fold
same,"hTNF-α secretion, normal B cells, Donor 3, fold induction over background",[1],22.8 fold
same,"MCP-1 secretion, CLL cells, CLL #1, fold induction over background",[2],5.5 fold
same,"hGM-CSF secretion, CLL cells, CLL #1, fold induction over background",[2],7.6 fold
same,"hIL-8 secretion, CLL cells, CLL #1, fold induction over background",[2],4 fold
same,"hIL-10 secretion, CLL cells, CLL #1, fold induction over background",[2],9.2 fold
same,"hTNF-α secretion, CLL cells, CLL #1, fold induction over background",[2],3.3 fold
B2,"CellTiter-Glo viability, fold induction by rhsCD40L, CLL subject M1",[3],3.1 fold
same,"CellTiter-Glo viability, fold induction by rhsCD40L, CLL subject M2",[3],2.9 fold
same,"CellTiter-Glo viability, fold induction by rhsCD40L, CLL subject M3",[3],1.9 fold
same,"CellTiter-Glo viability, fold induction by rhsCD40L, CLL subject M4",[3],2.3 fold
same,"CellTiter-Glo viability, fold induction by rhsCD40L, CLL subject M5",[3],3.5 fold
same,"CellTiter-Glo viability, fold induction by rhsCD40L, CLL subject M6",[3],2.6 fold
same,"CellTiter-Glo viability, fold induction by rhsCD40L, CLL subject M7",[3],3.8 fold
same,"CellTiter-Glo viability, fold induction by rhsCD40L, Normal B",[3],3 fold
same,"cPARP flow cytometry, fold inhibition by rhsCD40L, CLL subject M1",[3],5.8 fold
same,"cPARP flow cytometry, fold inhibition by rhsCD40L, CLL subject M2",[3],2.6 fold
same,"cPARP flow cytometry, fold inhibition by rhsCD40L, CLL subject M3",[3],2.1 fold
same,"cPARP flow cytometry, fold inhibition by rhsCD40L, CLL subject M4",[3],3.2 fold
same,"cPARP flow cytometry, fold inhibition by rhsCD40L, CLL subject M5",[3],2.3 fold
same,"cPARP flow cytometry, fold inhibition by rhsCD40L, CLL subject M6",[3],0.9 fold
same,"cPARP flow cytometry, fold inhibition by rhsCD40L, CLL subject M7",[3],5.2 fold
same,"cPARP flow cytometry, fold inhibition by rhsCD40L, Normal B",[3],3 fold
B3,Kd,[4],12 nM
B4,Kd,[4],0.5 nM
